Test results published in US20230365636A1, “BIOORTHOGONAL REPORTER GENE SYSTEM” (priority 2020, published 2023).

Tests used:
[1] = biological target: T1, reporter protein DTPA-V5-TMD-mRuby3 (DTPA-R) on Jurkat cells (Homo sapiens, UniProt P80188, C107S/D67E/D97E/I100T/I61A/I75T/K154S/K66P/K70L/K95M/L127F/L56R/L62P/L90R/M71L/N85D/P68L/Q48H/Q69L/R101M/R63P/S119N/S147Q/S88A/T156S/T74Q/V53Q/W99L/Y158L/Y72T); experiment: Competition radioligand binding assay (Y-90 radioligand vs Y-89 charged chelator) on Jurkat cells; conditions: competition of fixed amount of Y-90 radioligand by dilution series of Y-89 charged chelator, FIG. 14A
T1 construct: to Jurkat cells expressing the reporter protein DTPA-V5-TMD-mRuby3 was assessed; expressed in transfected cells; host or cells: Jurkat (human T-cell line), stably modified
T1 sequence (P80188 21-197 with the stated changes): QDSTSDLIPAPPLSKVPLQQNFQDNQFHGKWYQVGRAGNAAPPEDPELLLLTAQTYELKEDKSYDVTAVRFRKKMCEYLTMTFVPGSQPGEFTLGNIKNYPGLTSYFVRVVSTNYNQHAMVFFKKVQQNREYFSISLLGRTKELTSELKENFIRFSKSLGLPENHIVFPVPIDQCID
Procedure: The binding of different radioligands to cells that express the DTPA-R or Colchi-R was shown in binding assays. To this end, Jurkat or PC3 cells that stably express the respective reporter protein of the invention were cultivated, counted and a defined concentration was incubated together with the radioligand in PBS with 2% BSA for 1 h at 37° C. Subsequently, the cells were washed twice with PBS with 2% BSA and finally in the cell-bound fraction and the supernatant fraction the respective radioactivity was detected. (A) NH2-Bn-CHX-A″-DTPA⋅Y-90 binding was competed with a non-radioactive competitor NH2-Bn-CHX-A″-DTPA⋅Y-89. […] (C) A comparative binding assay with ^18F-Py-Ahx-DTPA and ^18F-Py-Glu-Glu-PEG(4)-Colchicine to Jurkat cells expressing either DTPA-R or Colchi-R proving the orthogonal functionality of the two reporter protein & reporter probe pairs.
For the sensitive and specific detection of cells that are labeled with the reporter gene of the invention, the binding between the Anticalin binding protein and the radioligand is of utmost importance. For this reason, the binding of different radioligands to cells that were stably modified with the reporter genes was studies in vitro (FIG. 14). At first, the binding of the ligand domain for the DTPA-R (NH2-CHX-A″-DTPA) to Jurkat cells expressing the reporter protein DTPA-V5-TMD-mRuby3 was assessed. […]

scFv(muC825)-V5-CD4TMD [2] = experiment: Flow cytometry of retrovirally transduced Jurkat cells after FACS sorting of the 10% highest expressing cells. Staining with AlexaFluor488-conjugated SV5-PK1. Target printed as muC825-V5-TMD.
[3] = biological target: DTPA-V5-TMD-mRuby3 (human); experiment: Magnetic-activated cell separation with SV5-PK1 and anti-mouse IgG microbeads, read by flow cytometry for mRuby3. Cells: Jurkat DTPA-V5-TMD-mRuby3.
Colchi-V5-TMD (human) = experiment: Quantification of the SV5-PK1 western blot signals with LI-COR software. The y axis is fold change [relative].
CL31d-V5-CD4TMD (human) [4] = experiment: as above
Sequence of CL31d-V5-CD4TMD (human) (chain, as listed by the source): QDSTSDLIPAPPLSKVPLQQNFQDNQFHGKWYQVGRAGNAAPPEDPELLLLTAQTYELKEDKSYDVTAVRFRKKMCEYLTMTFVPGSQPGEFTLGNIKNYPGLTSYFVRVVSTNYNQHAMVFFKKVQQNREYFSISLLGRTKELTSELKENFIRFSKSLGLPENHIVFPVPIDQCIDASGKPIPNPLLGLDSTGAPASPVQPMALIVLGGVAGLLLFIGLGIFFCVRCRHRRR

scFv(muC825)-V5-CD4TMD [5] = experiment: flow cytometry, SV5-PK1-AlexaFluor488 on transduced Jurkat cells; the filing reads it as surface expression level
CL31d-V5-CD4TMD (human) [6] = experiment: as above
scFv(huC825)-V5-CD4TMD [7] = experiment: as above
DTPA-miRFP703 = experiment: Flow cytometry of lentivirally transduced Jurkat cells stained with Alexa Fluor 488-conjugated SV5-PK1 against the extracellular V5-tag. Target printed as DTPA-miRFP703.
CL31d-V5-CD4TMD (human) [8] = experiment: Flow cytometry of lentivirally transduced Jurkat cells stained with Alexa Fluor 488-conjugated SV5-PK1 against the extracellular V5-tag. Target printed as DTPA-TMD.
[9] = biological target: DTPA-V5-TMD-mRuby3 (human); experiment: Flow cytometry of lentivirally transduced Jurkat cells stained with Alexa Fluor 488-conjugated SV5-PK1 against the extracellular V5-tag. Target printed as DTPA-mRuby3.
scFv(huC825)-V5-CD4TMD [10] = experiment: Flow cytometry of retrovirally transduced Jurkat cells after FACS sorting of the 10% highest expressing cells. Staining with AlexaFluor488-conjugated SV5-PK1. Target printed as huC825-V5-TMD.
[11] = biological target: Colchi-V5-TMD-mRuby3 (human); experiment: Magnetic-activated cell separation with SV5-PK1 and anti-mouse IgG microbeads, read by flow cytometry for mRuby3. Cells: Jurkat Colchi-V5-TMD-mRuby3.
CL31d-V5-CD4TMD (human) [12] = experiment: Flow cytometry of retrovirally transduced Jurkat cells after FACS sorting of the 10% highest expressing cells. Staining with AlexaFluor488-conjugated SV5-PK1. Target printed as CL31d-V5-TMD.
DTPA-miRFP720 = experiment: Flow cytometry of lentivirally transduced Jurkat cells stained with Alexa Fluor 488-conjugated SV5-PK1 against the extracellular V5-tag. Target printed as DTPA-miRFP720.

Row | Molecule | IC50 [1] | MFI (scFv(muC825)-V5-CD4TMD [2]) | % mRuby3-positive cells in the MACS eluate [3] | % mRuby3-positive cells in the MACS flow through [3] | fold increase of the quantified V5 band signal, lane 5 over lane 3 (Colchi-V5-TMD-mRuby3) (Colchi-V5-TMD (human)) | fold increase of the quantified V5 band signal, lane 4 over lane 2 (DTPA-V5-TMD-mRuby3) (CL31d-V5-CD4TMD (human) [4]) | Median Fluorescence Intensity (MFI) (scFv(muC825)-V5-CD4TMD [5]) | Median Fluorescence Intensity (MFI) (CL31d-V5-CD4TMD (human) [6]) | Median Fluorescence Intensity (MFI) (scFv(huC825)-V5-CD4TMD [7]) | MFI (DTPA-miRFP703) | MFI (CL31d-V5-CD4TMD (human) [8]) | MFI [9] | MFI (scFv(huC825)-V5-CD4TMD [10]) | % mRuby3-positive cells in the MACS eluate [11] | % mRuby3-positive cells in the MACS flow through [11] | MFI (CL31d-V5-CD4TMD (human) [12]) | MFI (DTPA-miRFP720)
1 | Nc1ccc(C[C@H](CN(CC(=O)O)[C@H]2CCCC[C@@H]2N(CC(=O)O)CC(=O)O)N(CC(=O)O)CC(=O)O)cc1 [NH2-CHX-A″-DTPA, [(R)-2-amino-3-(4-aminophenyl)propyl]-trans-(S,S)-cyclohexane-1,2-diaminepentaacetic acid] | 1.4 nM |  |  |  |  |  |  |  |  |  |  |  |  |  |  |  | 
2 | monoclonal anti-V5-antibody SV5-PK1 |  | 7400 | 98.5% | 0.8% | 5.4 fold | 3.7 fold | 1130 | 6560 | 1080 | 2330 | 18500 | 1740 | 6200 | 99% | 1.5% | 20600 | 2550
